Measured values taken from patent US20240124560A1.

What was measured:
[1] = target: HIV-1 Du156.12 Env (HIV-1 Du156.12); assay: cell-based or functional assay
[2] = target: HIV-1 Env of NAC_92TH021 (HIV-1); assay: cell-based or functional assay
[3] = target: HIV-1 Env of NAC_ADA (HIV-1); assay: cell-based or functional assay
[4] = target: HIV-1 Env of NAC_BaL.26 (HIV-1); assay: cell-based or functional assay
[5] = target: HIV-1 Env of NAC_WITO.33 (HIV-1); assay: cell-based or functional assay
[6] = target: HIV-1 Env of NIH-005_TRO.11 (HIV-1); assay: cell-based or functional assay
[7] = target: HIV-1 Env of NIH-011_1056.10.TA11.1826 (HIV-1); assay: cell-based or functional assay
[8] = target: HIV-1 Env of NIH-013_6240.08.TA5.4622 (HIV-1); assay: cell-based or functional assay
[9] = target: HIV-1 Env of NIH-019_Du422.1 (HIV-1); assay: cell-based or functional assay
[10] = target: HIV-1 Env of NIH-022_ZM233M.PB6 (HIV-1); assay: cell-based or functional assay
[11] = target: HIV-1 Env of NIH-030_HIV-0013095.2.11 (HIV-1); assay: cell-based or functional assay
[12] = target: HIV-1 Env of NIH-043_ZM249M.B10 (HIV-1); assay: cell-based or functional assay
[13] = target: HIV-1 Env of NIH-064_0260.v5.c1 (HIV-1); assay: cell-based or functional assay
[14] = target: HIV-1 Env of NIH-066_191084 B7.19 (HIV-1); assay: cell-based or functional assay
[15] = target: HIV-1 Env of NIH-069_C1080.c03 (HIV-1); assay: cell-based or functional assay
[16] = target: HIV-1 Env of NIH-075_CNE8 (HIV-1); assay: cell-based or functional assay
[17] = target: HIV-1 Env of NIH-106_T250.4 (HIV-1); assay: cell-based or functional assay
[18] = target: HIV-1 Env of isolate COT6 (wild-type) (HIV-1); assay: cell-based or functional assay
[19] = target: HIV-1 Env of isolate COT6, mutant D674E (HIV-1); assay: cell-based or functional assay
[20] = target: HIV-1 Env of isolate COT6, mutant D674S (HIV-1); assay: cell-based or functional assay
[21] = target: HIV-1 Env of isolate COT6, mutant D674T (HIV-1); assay: cell-based or functional assay
[22] = target: HIV-1 Env of isolate NIH-084_X1254 c3 (HIV-1); assay: cell-based or functional assay
[23] = target: HIV-1 Env of pseudovirus NAC_94UG103 (HIV-1); assay: cell-based or functional assay
[24] = target: HIV-1 Env of pseudovirus NAC_DH12 (HIV-1); assay: cell-based or functional assay
[25] = target: HIV-1 Env of pseudovirus NIH-003_SC422661.8 (HIV-1); assay: cell-based or functional assay
[26] = target: HIV-1 Env of pseudovirus NIH-024_ZM53M.PB12 (HIV-1); assay: cell-based or functional assay
[27] = target: HIV-1 Env of pseudovirus NIH-026_ZM135M.PL10a (HIV-1); assay: cell-based or functional assay
[28] = target: HIV-1 Env of pseudovirus NIH-027_CAP45.G3 (HIV-1); assay: cell-based or functional assay
[29] = target: HIV-1 Env of pseudovirus NIH-044_ZM247F.F7 (HIV-1); assay: cell-based or functional assay
[30] = target: HIV-1 Env of pseudovirus NIH-045_7030102001E5(Rev.) (HIV-1); assay: cell-based or functional assay
[31] = target: HIV-1 Env of pseudovirus NIH-046_1394C9G1(Rev.) (HIV-1); assay: cell-based or functional assay
[32] = target: HIV-1 Env of pseudovirus NIH-048_CNE19 (HIV-1); assay: cell-based or functional assay
[33] = target: HIV-1 Env of pseudovirus NIH-049_CNE20 (HIV-1); assay: cell-based or functional assay
[34] = target: HIV-1 Env of pseudovirus NIH-058_Q23ENV17 (HIV-1); assay: cell-based or functional assay
[35] = target: HIV-1 Env of pseudovirus NIH-083_P0402 c2 11 (clade G) (HIV-1); assay: cell-based or functional assay
[36] = target: HIV-1 Env of pseudovirus NIH-089_3016.v5.c45 (clade D) (HIV-1); assay: cell-based or functional assay
[37] = target: HIV-1 Env of pseudovirus NIH-091_231965.c01 (clade D) (HIV-1); assay: cell-based or functional assay
[38] = target: HIV-1 Env of pseudovirus NIH-114_T257.31 (HIV-1); assay: cell-based or functional assay
[39] = target: HIV-1 Env of pseudovirus NIH-118_T255.34 (HIV-1); assay: cell-based or functional assay
[40] = target: HIV-2 C1 chimera Env (HIV-2 (HIV-1 MPER) chimera); assay: cell-based or functional assay
[41] = target: HIV-2 C3 chimera Env (HIV-2 (HIV-1 MPER) chimera); assay: cell-based or functional assay
[42] = target: HIV-2 C4 chimera Env (HIV-2 (HIV-1 MPER) chimera); assay: cell-based or functional assay
[43] = target: HIV-2 Env (parental virus of the chimeras) (HIV-2); assay: cell-based or functional assay
full-length MPER peptide = assay: ELISA on peptide MPER (654-683), antibody titrated
4E10-specific peptide = assay: ELISA on peptide MPER (671-683), antibody titrated
[44] = target: HIV-1 Env of isolate Du156.12 (HIV-1); assay: cell-based or functional assay

Work on 4E10 (antibody) yielded an IC50 (µg/ml), neutralization of HIV-1 Du156.12 [1] of 0.101 µg/mL, an IC80 neutralization [2] of 1.38 µg/mL and an IC80 neutralization [3] of 3.34 µg/mL. For the same substance, the IC80 neutralization [4] was 17.1 µg/mL, the IC80 neutralization [5] was 1.82 µg/mL and the IC80 neutralization [6] was 3.08 µg/mL. The IC80 neutralization [7] was 2.81 µg/mL, the IC80 neutralization [8] was 40.3 µg/mL and the IC80 neutralization [9] was 5.66 µg/mL. It also gave an IC80 neutralization [10] of 4.99 µg/mL, an IC80 neutralization [11] of 0.258 µg/mL and an IC80 neutralization [12] of 4.55 µg/mL. The IC80 neutralization [13] was 6.08 µg/mL, the IC80 neutralization [14] was 9.04 µg/mL and the IC80 neutralization [15] was 1.36 µg/mL. It also gave an IC80 neutralization [16] of 0.27 µg/mL, an IC80 neutralization [17] of 3.42 µg/mL and a Fold increase in IC50 (wild-type COT6, the reference) [18] of 1 fold. For the same substance, the Fold increase in IC50 relative to wild-type COT6 [19] was 10 fold, the Fold increase in IC50 relative to wild-type COT6 [20] was 1.65 fold and the Fold increase in IC50 relative to wild-type COT6 [21] was 25 fold. The IC80 (µg/ml), TZM-bl pseudovirus neutralization [22] was 11.8 µg/mL, the neutralization IC50 [23] was 1.77 µg/mL and the neutralization IC50 [24] was 1.17 µg/mL. The neutralization IC50 [25] was 2.78 µg/mL, the neutralization IC50 [26] was 10.4 µg/mL and the neutralization IC50 [27] was 0.133 µg/mL. The neutralization IC50 [28] was 0.886 µg/mL, the neutralization IC50 [29] was 1.85 µg/mL and the neutralization IC50 [30] was 3.41 µg/mL. The neutralization IC50 [31] was 2.58 µg/mL, the neutralization IC50 [32] was 0.31 µg/mL and the neutralization IC50 [33] was 0.383 µg/mL. The neutralization IC50 [34] was 1.29 µg/mL, the IC50 (µg/ml), TZM-bl cell neutralization assay, pseudovirus [35] was 0.084 µg/mL and the IC50 (µg/ml), TZM-bl cell neutralization assay, pseudovirus [36] was 0.915 µg/mL. It also gave an IC50 (µg/ml), TZM-bl cell neutralization assay, pseudovirus [37] of 13.8 µg/mL, a neutralization IC50 [38] of 1.03 µg/mL and a neutralization IC50 [39] of 0.326 µg/mL. The IC50 (µg/ml), neutralization of chimeric virus [40] was 0.8 µg/mL, the IC50 (µg/ml), neutralization of chimeric virus [41] was > 10 µg/mL and the IC50 (µg/ml), neutralization of chimeric virus [42] was 1.41 µg/mL. The IC50 (µg/ml), neutralization of HIV-2 [43] was > 10 µg/mL, the EC50 (read off the curve) (full-length MPER peptide) was 0.03 µg/mL and the EC50 (read off the curve) (4E10-specific peptide) was 0.02 µg/mL.
In the case of PGZL1 (antibody), the IC80 neutralization [2] is reported as 8.27 µg/mL, the IC80 neutralization [3] is reported as 21.8 µg/mL and the IC80 neutralization [4] is reported as > 50 µg/mL. The IC80 neutralization [5] was 15.1 µg/mL, the IC80 neutralization [6] was 11.8 µg/mL and the IC80 neutralization [7] was 14.9 µg/mL. The IC80 neutralization [8] was > 50 µg/mL, the IC80 neutralization [9] was 30.5 µg/mL and the IC80 neutralization [10] was 23.6 µg/mL. For the same substance, the IC80 neutralization [11] was 0.113 µg/mL, the IC80 neutralization [12] was 25.6 µg/mL and the IC80 neutralization [13] was > 50 µg/mL. For the same substance, the IC80 neutralization [14] was > 50 µg/mL, the IC80 neutralization [15] was 6.93 µg/mL and the IC80 neutralization [16] was 0.945 µg/mL. The IC80 neutralization [17] was > 50 µg/mL, the IC80 (µg/ml), TZM-bl pseudovirus neutralization [22] was > 50 µg/mL and the neutralization IC50 [23] was 24.1 µg/mL. The neutralization IC50 [24] was 4.71 µg/mL, the neutralization IC50 [25] was 16.8 µg/mL and the neutralization IC50 [26] was > 50 µg/mL. For the same substance, the neutralization IC50 [27] was 0.296 µg/mL, the neutralization IC50 [28] was 18.3 µg/mL and the neutralization IC50 [30] was 49.6 µg/mL. It also gave a neutralization IC50 [31] of 7.87 µg/mL, a neutralization IC50 [32] of 3.12 µg/mL and a neutralization IC50 [33] of 2.42 µg/mL. It also gave a neutralization IC50 [34] of 16.5 µg/mL, an IC50 (µg/ml), TZM-bl cell neutralization assay, pseudovirus [35] of 8.29 µg/mL and an IC50 (µg/ml), TZM-bl cell neutralization assay, pseudovirus [36] of 2.4 µg/mL. The IC50 (µg/ml), TZM-bl cell neutralization assay, pseudovirus [37] was > 50 µg/mL, the neutralization IC50 [38] was 29.6 µg/mL and the neutralization IC50 [39] was 3.35 µg/mL. The EC50 (read off the curve) (full-length MPER peptide) was 0.02 µg/mL and the EC50 (read off the curve) (4E10-specific peptide) was 0.02 µg/mL.
VRC01 (antibody) showed an IC80 neutralization [2] of 1.31 µg/mL, an IC80 neutralization [3] of 1.31 µg/mL and an IC80 neutralization [4] of 0.037 µg/mL. For the same substance, the IC80 neutralization [5] was 0.228 µg/mL, the IC80 neutralization [6] was 0.912 µg/mL and the IC80 neutralization [7] was 1.48 µg/mL. The IC80 neutralization [8] was 2.62 µg/mL, the IC80 neutralization [9] was > 50 µg/mL and the IC80 neutralization [10] was 5.69 µg/mL. The IC80 neutralization [11] was 0.058 µg/mL, the IC80 neutralization [12] was 0.275 µg/mL and the IC80 neutralization [13] was 0.516 µg/mL. The IC80 neutralization [14] was 0.188 µg/mL, the IC80 neutralization [15] was 5.7 µg/mL and the IC80 neutralization [16] was 0.514 µg/mL. For the same substance, the IC80 neutralization [17] was > 50 µg/mL, the Fold increase in IC50 (wild-type COT6, the reference) [18] was 1 fold and the Fold increase in IC50 relative to wild-type COT6 [19] was 1.2 fold. The Fold increase in IC50 relative to wild-type COT6 [21] was 1 fold, the Fold change (IC50 wash)/(IC50 no wash) [44] was 1.5 fold and the IC50 (µg/ml), no wash [44] was 0.11 µg/mL. For the same substance, the IC50 (µg/ml), wash [44] was 0.16 µg/mL, the IC80 (µg/ml), TZM-bl pseudovirus neutralization [22] was 0.149 µg/mL and the neutralization IC50 [23] was 0.187 µg/mL. It also gave a neutralization IC50 [24] of 0.227 µg/mL, a neutralization IC50 [25] of 0.124 µg/mL and a neutralization IC50 [26] of 0.917 µg/mL. It also gave a neutralization IC50 [27] of 0.102 µg/mL, a neutralization IC50 [28] of 1.92 µg/mL and a neutralization IC50 [29] of 0.236 µg/mL. For the same substance, the neutralization IC50 [30] was 0.38 µg/mL, the neutralization IC50 [31] was 0.28 µg/mL and the neutralization IC50 [32] was 0.127 µg/mL. For the same substance, the neutralization IC50 [33] was 4.85 µg/mL, the neutralization IC50 [34] was 0.038 µg/mL and the IC50 (µg/ml), TZM-bl cell neutralization assay, pseudovirus [35] was 0.04 µg/mL. It also gave an IC50 (µg/ml), TZM-bl cell neutralization assay, pseudovirus [36] of 0.058 µg/mL, an IC50 (µg/ml), TZM-bl cell neutralization assay, pseudovirus [37] of 0.183 µg/mL and a neutralization IC50 [38] of 1.61 µg/mL. For the same substance, the neutralization IC50 [39] was 0.229 µg/mL.
